Assay [1] addresses T1, PSMA-expressing LNCaP cells (Homo sapiens, UniProt Q04609).
T1 construct: host or cells: LNCaP human prostate cancer cells
The assay is described as follows: Binding specificity by flow cytometry. The following applies: FITC-labeled anti-human IgG detection, different antibody concentrations. The method, then: The human PSMA-expressing prostate cancer cell line LNCaP was used to determine the specificity of anti-PSMA human monoclonal antibodies by flow cytometry. Binding of the 2F5, 2A10, and 2C6 anti-PSMA human monoclonal antibodies was assessed by incubating the LNCaP cells with the anti-PSMA human monoclonal antibodies at different concentrations. The cells were washed and binding was detected with a FITC-labeled anti-human IgG Ab. Flow cytometric analyses were performed using a FACScan flow cytometry (Becton Dickinson, San Jose, Calif.). The human anti-PSMA monoclonal antibody 7F12 (as described in PCT Publication WO 03/064606) was used as a positive control and a non-PSMA specific isotype control antibody was used as a negative control. The results are depicted in FIG. 9.
In general terms: In flow cytometry, cells or beads pass a laser one at a time.

In assay [2] the target is T2, PSMA immunopurified from LNCaP cells (Homo sapiens, UniProt Q04609).
T2 construct: endogenous in cells; host or cells: LNCaP cells (protein immunopurified from them)
T2 sequence (Q04609 whole entry): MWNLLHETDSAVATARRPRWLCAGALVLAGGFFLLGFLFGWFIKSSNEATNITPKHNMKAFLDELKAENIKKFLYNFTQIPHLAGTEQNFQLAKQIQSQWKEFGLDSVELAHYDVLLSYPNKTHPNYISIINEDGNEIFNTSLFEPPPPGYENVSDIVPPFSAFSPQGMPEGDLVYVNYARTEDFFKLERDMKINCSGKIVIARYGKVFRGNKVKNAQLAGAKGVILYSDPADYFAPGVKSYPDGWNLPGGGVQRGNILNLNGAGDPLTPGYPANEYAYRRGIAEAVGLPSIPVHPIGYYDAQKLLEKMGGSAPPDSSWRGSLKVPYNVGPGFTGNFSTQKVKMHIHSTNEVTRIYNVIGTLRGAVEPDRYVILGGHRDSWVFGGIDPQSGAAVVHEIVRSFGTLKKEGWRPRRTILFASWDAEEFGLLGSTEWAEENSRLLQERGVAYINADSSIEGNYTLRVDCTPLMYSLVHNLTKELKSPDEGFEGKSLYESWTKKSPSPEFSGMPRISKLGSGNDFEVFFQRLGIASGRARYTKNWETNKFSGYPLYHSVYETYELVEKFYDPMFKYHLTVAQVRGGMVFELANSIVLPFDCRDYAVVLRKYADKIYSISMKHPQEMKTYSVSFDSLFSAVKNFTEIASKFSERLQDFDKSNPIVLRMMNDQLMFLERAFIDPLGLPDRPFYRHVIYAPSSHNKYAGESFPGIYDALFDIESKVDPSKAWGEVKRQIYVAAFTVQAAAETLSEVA
The assay is described as follows: Binding specificity by ELISA. Particulars: antibody from 5 μg/ml, 1:2 serial dilutions. How it is done:
A comparison of anti-PSMA antibodies on binding to immunopurified PSMA was performed by standard ELISA to examine the specificity of binding for PSMA.
PSMA was immunopurified from LNCaP cells and tested for binding against the anti-PSMA human monoclonal antibodies 1C3, 2A10, 2F5, and 2C6. Standard ELISA procedures were performed. The anti-PSMA human monoclonal antibodies were added at a concentration of 5 μg/ml and titrated down at 1:2 serial dilutions. Goat-anti-human IgG (kappa chain-specific) polyclonal antibody conjugated with horseradish peroxidase (HRP) was used as secondary antibody. The human anti-PSMA monoclonal antibody 7F12 was used as a positive control and a blank was used as a negative control.
Background: An ELISA detects its analyte on a solid surface through an enzyme-linked reagent.

“Also recorded” adds a separate entry of the source.

T1 sequence (Q04609 whole entry): as above

B1: 2F5: human monoclonal anti-PSMA antibody, VH SEQ ID NO: 3, VL SEQ ID NO: 7 (antibody, listed as Homo sapiens, V domains shown)
VH: EVQLVQSGAEVKKPGESLKISCKGSGYSFTSNWIGWVRQMPGKGLEWMGIIYPGDSDTRYSPSFQGQVTISADKSISTAYLQWNSLKASDTAMYYCARQTGFLWSFDLWGRGTLVTVSS
VL: AIQLTQSPSSLSASVGDRVTITCRASQDISSALAWYQQKPGKAPKLLIYDASSLESGVPSRFSGSGSGTDFTLTISSLQPEDFATYYCQQFNSYPLTFGGGTKVEIKIK
As to B1, the “binding to PSMA-expressing LNCaP cells” value in assay [1] is reported as “bound specifically; also recorded: binds the cell surface of PSMA-expressing LNCaP cells”. Besides, the “binding to immunopurified PSMA” value in assay [2] is reported as “bound with high specificity”.

B2: 1C3: human monoclonal anti-PSMA antibody, VH SEQ ID NO: 1, VL SEQ ID NO: 5 (antibody, listed as Homo sapiens, V domains shown)
VH: QVQLVESGGGVVQPGRSLRLSCAASGFTFSSYAMHWVRQAPGKGLEWVAVISYDGNNKYYADSVKGRFTISRDNSKNTLYLQMNSLRAEDTAVYYCARAVPWGSRYYYYGMDVWGQGTTVTVSS
VL: AIQLTQSPSSLSASVGDRVTITCRASQGISSALAWYQQKSGKAPKLLIFDASSLESGVPSRFSGSGSGTDFTLTISSLQPEDFATYYCQQFNSYPLTFGGGTKVEIK
Turning to B2, in assay [2], the “binding to immunopurified PSMA” value was “detectable but only low level binding”.

B3: 2C6: human monoclonal anti-PSMA antibody, VH SEQ ID NO: 4, VL SEQ ID NO: 8 (antibody, listed as Homo sapiens, V domains shown)
VH: EVQLVQSGSEVKKPGESLKISCKGSGYSFTNYWIGWVRQMPGKGLEWMGIIYPGDSDTRYSPSFQGQVTISADKSISTAYLQWSSLKASDTAMYYCASPGYTSSWTSFDYWGQGTLVTVSS
VL: EIVLTQSPATLSLSPGERATLSCRASQSVSSYLAWYQQKPGQAPRLLIYDASNRATGIPARFSGSGSGTDFTLTISSLEPEDFAVYYCQQRSNWPLFTFGPGTKVDIK
With B3, the “binding to PSMA-expressing LNCaP cells” value in assay [1] is listed as “bound specifically; also recorded: binds the cell surface of PSMA-expressing LNCaP cells”. In assay [2], the “binding to immunopurified PSMA” value is “detectable but only low level binding”.
